Columns and labels:
[1] = target: human mitochondrial lysyl-tRNA synthetase with a C-terminal HA-tag (human) (UniProt Q15046); experiment: AlphaScreen or HTRF; HTRF as in a1, Pol on mLysRS in the presence of 1 μM tRNA3^Lys
[2] = target: human mitochondrial lysyl-tRNA synthetase with a C-terminal HA-tag (human) (UniProt Q15046); experiment: AlphaScreen or HTRF; HTRF; 1.5 nM mLysRS-HA or mLysRS∆C-HA (dimer) with rising His-tagged Pol (0.02 to 10 nM dimer), IN (0.5 to 125 nM dimer) or TF (1 to 1000 nM monomer); 10 mM Tris-HCl pH 7.5, 50 mM NaCl, 10 mM 2-mercaptoethanol, BSA 1 mg/ml, 1 h on ice; anti-H6-Eu3+ cryptate and anti-HA-XL665; apparent Kd
p38 (Homo sapiens) = p38 (Homo sapiens) (UniProt Q13155); experiment: SPR; conditions: cited from earlier work
[3] = target: human mitochondrial lysyl-tRNA synthetase with a C-terminal HA-tag (human) (UniProt Q15046); experiment: AlphaScreen or HTRF; HTRF; 1.5 nM mLysRS-HA or mLysRS∆C-HA (dimer) with rising His-tagged Pol (0.02 to 10 nM dimer), IN (0.5 to 125 nM dimer) or TF (1 to 1000 nM monomer); 10 mM Tris-HCl pH 7.5, 50 mM NaCl, 10 mM 2-mercaptoethanol, BSA 1 mg/ml, 1 h on ice; anti-H6-Eu3+ cryptate and anti-HA-XL665; apparent Kd; remark: listed apart in the source

Chain of p38 (Homo sapiens) (Q13155 whole entry): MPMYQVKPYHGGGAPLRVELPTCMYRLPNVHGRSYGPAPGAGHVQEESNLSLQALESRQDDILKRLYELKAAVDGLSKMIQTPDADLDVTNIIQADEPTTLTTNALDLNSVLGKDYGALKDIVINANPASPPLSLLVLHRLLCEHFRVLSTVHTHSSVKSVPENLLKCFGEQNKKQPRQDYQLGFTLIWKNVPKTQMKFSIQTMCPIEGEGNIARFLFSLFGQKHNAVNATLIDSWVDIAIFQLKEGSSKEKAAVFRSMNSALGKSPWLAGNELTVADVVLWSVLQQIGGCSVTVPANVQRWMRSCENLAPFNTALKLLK

HIV-1 Pol polyprotein (Pol region of GagPol) with a C-terminal His6 tag (natural protein)
Kd [1]: 0.71 nM
Kd [2]: 1.3 nM

mLysRS (from UniProt Q15046)
Kd (p38 (Homo sapiens)): 0.3 nM

HIV-1 integrase with a C-terminal His6 tag (domain or fragment)
Kd [3]: 12.9 nM
Kd [2]: 11.8 nM

— article PMC5863373
